Three molecules from patent US20160152686A1 (Bristol-Myers Squibb, published 2016) can be followed below.

Experiment [1] concerns the target T1, human serum albumin (human, UniProt P02768 25-609).
T1 construct: also called HSA; HuSA
The experiment is described as follows: SPR, affinity to HSA. For orientation: Surface plasmon resonance follows binding to a sensor surface in real time, without labels.

The target in experiment [2] is recombinant human PCSK9 expressed in baculovirus (human, UniProt Q8NBP7 31-692, limits assumed). The experiment is described as follows: PCSK9:EGFA FRET competition assay (inhibition of PCSK9 binding to biotinylated EGFA peptide). An excerpt: A fluorescence resonance energy transfer (FRET)-based assay was developed to determine the binding affinity and potency of PCSK9-binding adnectins. It was adapted from the general method described previously by Maio et al. (Miao, B. et al., Meth. Enzymol., 357:180-188 (2002); see also WO 2011/130354). The PCSK9:EGFA FRET assay measures the inhibition of PCSK9 binding to the LDLR epidermal growth factor precursor homology domain (EGFA domain), using recombinant human PCSK9 expressed in baculovirus and a synthetic 40-mer EGFA peptide (biotinylated). […] This assay uses a PCSK9 C-terminal domain binding mAb (mAb 4H5) labeled with Eu-chelate to provide FRET interaction with biotinylated EGFA through the streptavidin/allophycocyanin fluorophore complex. […] Thus, the biological activity of PCSK9 adnectin linked to ABD is at least as good as that of the unmodified PCSK9 adnectin.

Experiment [3] has as its target VEGFR2-Fc. Description: SPR, VEGFR2 immobilized on chip, ABD-(GS)3-C7FL-His6 (0.02 nM-300 nM) as analyte.
Experiment [4] concerns the target sol VEGFR2. The description is as above.
Experiment [5] has as its target T1, human serum albumin. Description: SPR, serum albumin immobilized on chip, ABD-(GS)3-C7FL-His6 (0.02 nM-300 nM) as analyte. The method, then:
(§1) The binding affinity of ABD-(GS)3-C7FL-His6 to human, mouse and Cynomolgus monkey serum albumin was also measured. In an SPR experiment, the serum albumins were immobilized on chip, and ABD-(GS)3-C7FL-His6 (0.02 nM-300 nM) was flowed as analyte.

The target in experiment [6] is Cynomolgus monkey serum albumin (given as RhSA in Table 3) (Cynomolgus monkey; RhSA (table)). The experiment is described as above. The protocol: as §1
The target in experiment [7] is T2, mouse serum albumin (mouse, UniProt P07724 25-608).
T2 construct: also called MuSA
Described as above. The method, then:
as §1

B1: PCSK9 adnectin-ABD fusion protein (PCSK9 adnectin-(GS)3-ABD-His6) (designed binder)
chain: MGVSDVPRDLEVVAATPTSLLISWVPPSDDYGYYRITYGETGGNSPVQEFTVPIGKGTATISGLKPGVDYTITVYAVEFPWPHAGYYHRPISINYRTGSGSGSQHDEAVDANSLAEAKVLANRELDKYGVSDYYKNLINNAKTVEGVKALIDEILAALPHHHHHH
notes: Expressed in E. coli; also called PCSK9 Adn-(GS)3-ABD; 2013_E01-(GS)3-ABD (anti-PCSK9)
The Kd is the free concentration of one partner at which half of the binding sites on the other are occupied at equilibrium, for simple one-to-one binding. For orientation: EC50 means the midpoint of the concentration-response curve. For B1, binding in experiment [1] was put at a Kd of 12.4 nM. In addition, in experiment [2], the half-maximal effective concentration (EC50) was found to be 0.3 nM.

B2: ABD-(GS)3-C7FL-His6 (anti-VEGFR2 adnectin linked to ABD at its N-terminus) (designed binder)
chain: MGQHDEAVDANSLAEAKVLANRELDKYGVSDYYKNLINNAKTVEGVKALIDEILAALPGSGSGSVSDVPRDLEVVAATPTSLLISWRHPHFPTRYYRITYGETGGNSPVQEFTVPLQPPTATISGLKPGVDYTITVYAVTDGRNGRLLSIPISINYRTGSGSHHHHHH
notes: also called ABD-C7FL; ATI-0001087
What is called koff is the first-order rate constant of dissociation. As usually defined, the kon is the second-order rate constant of association. B2: the Kd in experiment [1] turned out to be 1.15 nM; in experiment [3] it was 3.31 nM; in experiment [4], 3.18 nM; in experiment [5], 1.15 nM; in experiment [6] it was 1.82 nM; in experiment [7] it was 1 nM. The koff was 0.000163 s⁻¹ in experiment [3]; 0.000261 s⁻¹ in experiment [4]; 0.000505 s⁻¹ in experiment [5]; 0.000826 s⁻¹ in experiment [6]; 0.00033 s⁻¹ in experiment [7]. Also, the kon amounted to 49300 M⁻¹ s⁻¹ in experiment [3]; 82000 M⁻¹ s⁻¹ in experiment [4]; 439000 M⁻¹ s⁻¹ in experiment [5]; 455000 M⁻¹ s⁻¹ in experiment [6]; 331000 M⁻¹ s⁻¹ in experiment [7].

B3: unmodified (i.e., without ABD) PCSK9 adnectin (designed binder)
chain: VSDVPRDLEVVAATPTSLLISWVPPSDDYGYYRITYGETGGNSPVQEFTVPIGKGTATISGLKPGVDYTITVYAVEFPWPHAGYYHRPISINYRT
notes: also called Enhancer method: None
For B3, the EC50 in experiment [2] is 2.6 nM.
